Assay results: patent US20260242478A1 (published 2026)
Where no end group is shown, it is not given here.

B1: Phage-114 (peptide)
peptide: MDWCPRYLWFECFA
modifications: cysteine pairing not given here; also: phage-displayed pIII fusion, pIII and linker not given here
B2: Phage-116 (peptide)
peptide: MDWCPRDLWYACFA
modifications: cysteine pairing not given here; also: phage-displayed pIII fusion, pIII and linker not given here
B3: Phage-112 (peptide)
peptide: MHWCPRALWDVCYN
modifications: cysteine pairing not given here; also: phage-displayed pIII fusion, pIII and linker not given here
B4: Phage-111 (peptide)
peptide: MDWCPFYLWNECFY
modifications: cysteine pairing not given here; also: phage-displayed pIII fusion, pIII and linker not given here
B5: Phage-113 (peptide)
peptide: MDWCPRDLWNVCFF
modifications: cysteine pairing not given here; also: phage-displayed pIII fusion, pIII and linker not given here
B6: Phage-99 (peptide)
peptide: MDWCPRYLWNMCFH
modifications: cysteine pairing not given here; also: displayed on phage as fusion to pIII, linker not given here
B7: Phage-98 (peptide)
peptide: MDWCPKYLWDVCFN
modifications: cysteine pairing not given here; also: displayed on phage as fusion to pIII, linker not given here
B8: Phage-109 (peptide)
peptide: MDWCPKNLWHVCFN
modifications: cysteine pairing not given here; also: phage-displayed pIII fusion, pIII and linker not given here
B9: Phage-115 (peptide)
peptide: MDWCPRYLWHECFN
modifications: cysteine pairing not given here; also: phage-displayed pIII fusion, pIII and linker not given here
B10: Phage-100 (peptide)
peptide: MDWCPRYLWTECFN
modifications: cysteine pairing not given here; also: phage-displayed pIII fusion, pIII and linker not given here
B11: Phage-110 (peptide)
peptide: MDWCPRYLWDECFN
modifications: cysteine pairing not given here; also: phage-displayed pIII fusion, pIII and linker not given here

The binders below were run against T1, anti-CD28 scFv (VH - linker 1 - VL) (biotinylated (site not given)) (assay: phage ELISA; biotinylated anti-CD28 scFv on neutravidin plate, clonal phage supernatant, anti-M13 HRP).
T1 construct: Biotinylated scFv captured on neutravidin coated plates in the panning ELISA
T1 sequence (scFv, as listed by the source): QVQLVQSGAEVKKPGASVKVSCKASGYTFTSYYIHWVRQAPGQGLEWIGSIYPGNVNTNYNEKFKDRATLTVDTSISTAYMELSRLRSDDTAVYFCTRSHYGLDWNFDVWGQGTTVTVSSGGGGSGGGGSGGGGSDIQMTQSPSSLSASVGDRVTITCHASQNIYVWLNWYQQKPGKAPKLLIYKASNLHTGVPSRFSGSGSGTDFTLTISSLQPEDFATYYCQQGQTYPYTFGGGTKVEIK

In order of falling “CD28 scFv signal” value:
1. B7  2.57
2. B6  2.56
3. B10  2.56
4. B3  2.53
5. B4  2.53
6. B8  2.53
7. B11  2.53
8. B5  2.52
9. B1  2.5
10. B9  2.49
11. B2  2.47

What follows are binders tested against T1, anti-CD28 scFv (VH - linker 1 - VL) (assay: phage ELISA as above; wells pre-incubated with soluble CD28 as competitor;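 also: crude clonal phage supernatants tested, with bound phage detected by HRP-conjugated anti-M13 antibody, and reference wells given blocking buffer without CD28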).

In order of rising “CD28 scFv signal in presence of CD28” value:
1. B5  0.137
2. B1  0.21
3. B3  0.24
4. B2  0.242
5. B8  0.248
6. B11  0.283
7. B6  0.404
8. B9  0.421
9. B7  0.422
10. B10  0.549
11. B4  0.594
